Earlier results on one substance are cited in patent US6632836B1, “Carbocyclic potassium channel inhibitors” (Merck & Co., Inc., priority 1998, dated 2003).

For orientation: IC50 means the midpoint of a concentration-inhibition curve.

This data set has as its target T1, Kv1.3 channels (Homo sapiens, UniProt P22001).
T1 construct: expressed in transfected cells; host or cells: CHO cells
The note with it: reference blocker used at saturating concentration to establish the efflux window; read-out: IC50 as blocker of Kv1.3 channels.

T1 sequence (P22001 whole entry): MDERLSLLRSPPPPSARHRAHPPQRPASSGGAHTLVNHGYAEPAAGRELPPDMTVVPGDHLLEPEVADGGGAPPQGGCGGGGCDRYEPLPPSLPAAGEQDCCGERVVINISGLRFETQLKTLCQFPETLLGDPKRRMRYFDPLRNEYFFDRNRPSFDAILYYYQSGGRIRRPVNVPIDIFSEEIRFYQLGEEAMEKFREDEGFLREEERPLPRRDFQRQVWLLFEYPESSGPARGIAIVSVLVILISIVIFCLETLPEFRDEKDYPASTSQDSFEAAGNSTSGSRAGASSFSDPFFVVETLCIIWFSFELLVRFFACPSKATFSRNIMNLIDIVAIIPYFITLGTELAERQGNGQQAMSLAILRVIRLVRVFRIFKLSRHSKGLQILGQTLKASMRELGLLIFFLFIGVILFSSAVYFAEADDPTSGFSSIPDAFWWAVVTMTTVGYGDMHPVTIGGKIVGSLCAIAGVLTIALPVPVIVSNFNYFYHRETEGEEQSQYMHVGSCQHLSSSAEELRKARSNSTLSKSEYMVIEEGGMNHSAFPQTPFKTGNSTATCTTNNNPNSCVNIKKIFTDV

Take “margatoxin (TIINVKCTSPKQCLPPCKAQFGQSAGAKCMNGKCKCYPH; UniProt P40755 1-39, looked up)”: the half-inhibitory concentration (IC50) was 0.1 nM.
